T1: human TIGIT expressed on cells (human, UniProt Q495A1 22-244)
T1 construct: whole, on cells; on Jurkat E6.1 cells transduced with human TIGIT, on Promega TIGIT effector cells or on human primary T cells; the cell is named under assay; also called hTIGIT; Jurkat-hTIGIT
T1 sequence (looked up): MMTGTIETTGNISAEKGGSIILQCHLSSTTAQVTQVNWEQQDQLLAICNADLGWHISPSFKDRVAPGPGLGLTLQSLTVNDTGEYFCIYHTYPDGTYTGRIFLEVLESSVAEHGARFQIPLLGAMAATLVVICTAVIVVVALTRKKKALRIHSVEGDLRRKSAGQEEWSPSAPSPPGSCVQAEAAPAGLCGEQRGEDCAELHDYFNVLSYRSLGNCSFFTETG

T2: recombinant human TIGIT protein (human, UniProt Q495A1 22-141, limits assumed)
T2 construct: also called hTIGIT (Creative Biomart); antigen
T2 sequence (looked up): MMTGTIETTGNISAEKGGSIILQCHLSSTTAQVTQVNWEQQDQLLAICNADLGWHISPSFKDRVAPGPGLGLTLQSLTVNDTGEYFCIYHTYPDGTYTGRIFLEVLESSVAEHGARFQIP


Columns and labels:
[1] = target: T1, human TIGIT expressed on cells; experiment: flow cytometry, Jurkat-hTIGIT, MFI
Experimental: Antibodies were incubated with the cells for 20 min at 4° C. in FACS buffer. […] Fluorescence intensity was analysed using LSR BD Fortessa and cell binding was recorded as the median fluorescence intensity of PE in cells expressing TIGIT at their surface.
The half-maximal concentration of binding (EC50) to Jurkat-hTIGIT was calculated using a four-variable curve-fit equation in Prism.

[2] = target: T2, recombinant human TIGIT protein; experiment: Biacore T200 SPR, IgG captured, steady state model
[3] = target: T1, human TIGIT expressed on cells; experiment: FACS competition on Jurkat-hTIGIT; competitor CD155-His 15 ug/ml
[4] = target: T1, human TIGIT expressed on cells; experiment: flow cytometry, CD8+ T cells from cancer patient PBMC, MFI on TIGIT+CD8+
Experimental: Cells were distributed at 1×10^5 cells per well. […] Then, cells were washed and incubated with the following antibodies and life viability dye (LVD) mix: anti-CD4-PercP-Cy5.5 (clone A161A1, BioLegend 357414); anti-CD8-BV510 (clone SK1, BD Bioscience 563919) and LVD efluor 520 (eBioscience 65-0867-14). Cells were washed and fixed and surface staining was quantified using BD LSR Fortessa. Flow cytometry data was analysed using FlowJo V10.1. TIGIT MFI on gated LVD-TIGIT+CD8+ cells was used to calculate EC50 values.

[5] = target: T1, human TIGIT expressed on cells; experiment: flow cytometry, Jurkat-hTIGIT, MFI; end of the range tied to 313M32 by Table 16
[6] = target: T1, human TIGIT expressed on cells; experiment: flow cytometry, human primary CD8+ T cells (healthy PBMC), MFI on TIGIT+CD8+
[7] = target: Polyspecificity Reagent (PSR); experiment: flow cytometry, IgG presented on yeast, biotinylated PSR, normalised MFI

Polyspecificity Reagent (PSR) Score (0-1) [7]	Binder	also measured
–	anti-TIGIT antibody 313M32 (antibody, V domains shown) VH: QVQLQESGPGLVKPSETLSLTCAVSGYSITSDYAWNWIRQPPGKGLEWIGYISYSGSTSYNPSLRSRVTISRDTSKNQFFLKLSSVTAADTAVYYCARRQVGLGFAYWGQGTLVTVSS VL: DIQMTQSPSSLSASVGDRVTITCKASQDVSTAVAWYQQKPGKAPKLLIYSASYRYTGVPSRFSGSGSGTDFTFTISSLQPEDIATYYCQQHYSTPWTFGGGTKVEIK	EC50 [1]: 440 pM; Fold change of EC50 over EC50 of best clone (31282_wu) [1]: 4.2 fold; Kd [2]: 10100 pM; Fold change of IC50 over IC50 of best clone (31282_up) [3]: 16.7 fold; IC50 [3]: 650 pM; EC50 [4]: 1000 pM; Fold change of EC50 over EC50 of best clone (31282) [4]: 8.3 fold; EC50 [5]: 445 pM; EC50 [6]: 1450 pM; Fold change of EC50 over EC50 of best clone (31282_wu) [6]: 7.5 fold
0 score (0-1)	anti-TIGIT antibody clone 26486 (antibody, V domains shown) VH: QVQLQESGPGLVKPSETLSLTCAVSGYSISSGYYWAWIRQPPGKGLEWIGSIYHSGSTYYNPSLKSRVTISVDTSKNQFSLKLSSVTAADTAVYYCAIEGANYYDFGYVAFDIWGQGTMVTVSS VL: EIVMTQSPATLSVSPGERATLSCRASQSVSSNLAWYQQKPGQAPRLLIYGASTRATGIPARFSGSGSGTEFTLTISSLQSEDFAVYYCQQSPPWPRTFGGGTKVEIK	–
0 score (0-1)	anti-TIGIT antibody clone 29494 (antibody, V domains shown) VH: QVQLQESGPGLVKPSETLSLTCTVSGGSISSGSYYLAWIRQPPGKGLEWIGSIFRSGSTYYNPSLESRVTISVDTSKNQFSLKLSSVTAADTAVYYCAIEGANFKDFGYVAFDIWGQGTMVTVSS VL: EIVMTQSPATLSVSPGERATLSCRASQSVSSNLAWYQQKPGQAPRLLIYGASTRATGIPARFSGSGSGTEFTLTISSLQSEDFAVYYCQQSPPWPRTFGGGTKVEIK	–
0 score (0-1)	anti-TIGIT antibody clone 31288 (antibody, V domains shown) VH: QLQLQESGPGLVKPSETLSLTCTVSGGSISSGSYYLAWIRQPPGKGLEWIGSIFRSGSTYYNPSLESRVTISVDTSKNQFSLKLSSVTAADTAVYYCAIEGANFKDFGYVAFDIWGQGTTVTVSS VL: EIVMTQSPATLSVSPGERATLSCRASQSVSSNLAWYQQKPGQAPRLLIYGASTRATGIPARFSGSGSGTEFTLTISSLQSEDFAVYYCQQSPPWPRTFGGGTKVEIK	–
0.1 score (0-1)	anti-TIGIT antibody clone 29499 (antibody, V domains shown) VH: QLQLQESGPGLVKPSETLSLTCTVSGGSISSSRYYWAWIRQPPGKGLEWIGSIGTSGSTYYNPSLKSRVTISVDTSKNQFSLKLSSVTATDTAVYYCAIEGANFRDFGYVAFDIWGQGTMVTVSS VL: EIVMTQSPATLSVSPGERATLSCRASQSVSSNLAWYQQKPGQAPRLLIYGASTRATGIPARFSGSGSGTEFTLTISSLQSEDFAVYYCQQSPPWPRTFGGGTKVEIK	–
0 score (0-1)	anti-TIGIT antibody clone 32931 (antibody, V domains shown) VH: QLQLQESGPGLVKPSETLSLTCTVSGGSISSGSYYLAWIRQPPGKGLEWIGSIFRSGSTYYNPSLESRVTISVDTSKNQFSLKLSSVTAADTAVYYCAIEGANFKDFGYVAFDIWGQGTTVTVSS VL: EIVMTQSPATLSVSPGERATLSCRASKSVSSNLAWYQQKPGQAPRLLIYFASTRATGIPARFSGSGSGTEFTLTISSLQSEDFAVYYCQQTSPWPRTFGGGTKVEIK	–
0.01 score (0-1)	anti-TIGIT antibody clone 29513 (antibody, V domains shown) VH: QVQLVQSGAEVKKPGSSVKVSCKASGGTFQNYAISWVRQAPGQGLEWMGVIVPIFGTANYAQKFQGRVTVTADESTSTAYMELSSLRSEDTAVYYCARLHLGQKAYYGMDVWGQGTTVTVSS VL: DIQMTQSPSSLSASVGDRVTITCRASQSISSYLNWYQQKPGKAPKLLIYAASSLQSGVPSRFSGSGSGTDFTLTISSLQPEDFATYYCQQRYVFPPTFGGGTKVEIK	–
0 score (0-1)	anti-TIGIT antibody clone 26493 (antibody, V domains shown) VH: EVQLVESGGGLVQPGRSLRLSCAASGFTFGDYAMHWVRQAPGKGLEWVSGITWNSGSIGYADSVKGRFTISRDNAKNSLYLQMNSLRAEDTALYYCAKPVPKSRGLDVWGQGTMVTVSS VL: DIQLTQSPSSVSASVGDRVTITCRASQGISSWLAWYQQKPGKAPKLLIYGASSLQSGVPSRFSGSGSGTDFTLTISSLQPEDFATYYCQQAFYLPWTFGGGTKVEIK	–
0.12 score (0-1)	anti-TIGIT antibody clone 29523 (antibody, V domains shown) VH: EVQLVESGGGVVQPGRSLRLSCAASGFTFGSYYMHWVRQAPGKGLEWVAVIWPDGSNKLYADSVKGRFTISRDNSKNTLYLQMNSLRAEDTALYYCAKPVPKSRALDVWGQGTMVTVSS VL: DIQLTQSPSSVSASVGDRVTITCRASQGISSWLAWYQQKPGKAPKLLIYGASSLQSGVPSRFSGSGSGTDFTLTISSLQPEDFATYYCQQAFYLPWTFGGGTKVEIK	–
0.32 score (0-1)	anti-TIGIT antibody clone 29520 (antibody, V domains shown) VH: QVQLVESGGGLVQPGRSLRLSCAASGFTFRDYAMHWVRQAPGKGLEWVSGITWNSGLIGYADSVKGRFTISRDNAKNSLYLQMNSLRAEDTALYYCAKPVPRLRGLDVWGQGTMVTVSS VL: DIQLTQSPSSVSASVGDRVTITCRASQGISSWLAWYQQKPGKAPKLLIYGASSLQSGVPSRFSGSGSGTDFTLTISSLQPEDFATYYCQQAFYLPWTFGGGTKVEIK	–
0.12 score (0-1)	anti-TIGIT antibody clone 29527 (antibody, V domains shown) VH: QVQLVESGGGVVQPGRSLRLSCAASGFTFSSSYMHWVRQAPGKGLEWVAVIGADGSNKYYADSVEGRFTISRDNSKNTLYLQMNSLRAEDTALYYCAKPVPRRRGLDVWGQGTMVTVSS VL: DIQLTQSPSSVSASVGDRVTITCRASQGISSWLAWYQQKPGKAPKLLIYGASSLQSGVPSRFSGSGSGTDFTLTISSLQPEDFATYYCQQAFYLPWTFGGGTKVEIK	–

— US20190100591A1 (ITEOS BELGIUM, published 2019)
